We go through two molecules from paper PMC6599011, “Transcription factor YcjW controls the emergency H2S production in E. coli”.

Residue numbers refer to the chain shown, from its start.

What all share (conditions): protein: recombinant; tags: His-SUMO (pET28-SUMO), cleaved with SUMO protease; chain copies: 2; label: 32P 5' end (T4 PNK); blunt
In data set [1] the target is T1, YcjW (Escherichia coli K-12 MG1655, UniProt P77615 1-332).
T1 sequence: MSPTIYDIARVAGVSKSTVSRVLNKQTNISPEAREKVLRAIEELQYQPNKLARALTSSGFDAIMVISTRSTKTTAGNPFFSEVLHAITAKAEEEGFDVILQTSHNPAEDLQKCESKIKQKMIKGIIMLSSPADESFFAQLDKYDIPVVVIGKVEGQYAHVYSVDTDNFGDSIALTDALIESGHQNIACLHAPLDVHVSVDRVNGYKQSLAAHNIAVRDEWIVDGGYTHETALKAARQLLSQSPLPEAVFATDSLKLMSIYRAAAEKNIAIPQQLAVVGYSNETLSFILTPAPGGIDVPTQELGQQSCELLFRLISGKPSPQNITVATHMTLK
Nature of the data set: EMSA; shift from DNA:protein 1:0.5; no free probe at 1:2; EMSA with 32P-labelled dsDNA; binding buffer as in cited ref 14, not given; sugars preincubated with protein 20 min at room temperature; protein stored in 20 mM Tris-Cl pH 8.0, 50 mM NaCl, 1 mM DTT. A general note: Mobility shift assays separate free from complexed probe on a gel.

For the next data set, the target named is T2, YcjW S258N (Escherichia coli K-12 MG1655, UniProt P77615 1-332, S258N).
T2 sequence: T1 sequence with S258N
Described as above.

Data set [2] has as its target T1, YcjW. Description: EMSA; shift from about 1:0.5 DNA:protein, increasing with protein; EMSA with 32P-labelled dsDNA; binding buffer as in cited ref 14, not given; sugars preincubated with protein 20 min at room temperature; protein stored in 20 mM Tris-Cl pH 8.0, 50 mM NaCl, 1 mM DTT.

B1: narP EMSA probe (LL62/LL63) (dsDNA)
DNA 1: GGTAACATTCACGCGCCTGGTAGCGTTACCAACGCTACGCTCAAACATAATGATTC
DNA 2: GAATCATTATGTTTGAGCGTAGCGTTGGTAACGCTACCAGGCGCGTGAATGTTACC
Take B1: the binding result with YcjW [1] and with YcjW S258N was “binds” in each case.

B2: ycjM EMSA probe (LL58/LL59) (dsDNA)
DNA 1: GAGTAGTCTCTCGTTTCATGGGACCGCTACCACGGAAAGGCAACATGAAAC
DNA 2: GTTTCATGTTGCCTTTCCGTGGTAGCGGTCCCATGAAACGAGAGACTACTC
Regarding B2, the binding result in the data set with YcjW [2] is “binds”.
